Data from paper PMC5591402.

B1: wild-type N2 VHH antibody mutant G52aA [camelid] / TAMRA-labeled α-synuclein peptide [modified: tetramethylrhodamine (TAMRA) fluorophore, position not stated; tetramethylrhodamine (TAMRA) fluorophore, position not stated] [not stated] (parent)
chain 1: GQLVESGGGSVQAGGSLRLSCAASGIDSSSYCMGWFRQRPGKEREGVARINGLGGVKTAYADSVKDRFTISRDNAENTVYLQMNSLKPEDTAIYYCAAKFSPGYCGGSWSNFGYWGQGTQVTVSSH
chain 2: GYQDYEPEA

Variants of: B1
Assay: fluorescence polarization
Settings: with TAMRA-labeled α-synuclein peptide [modified: tetramethylrhodamine (TAMRA) fluorophore, 400 nM VHH, 2 nM TAMRA-labeled α-synuclein peptide, parent: 1, read off a plot

Variant	ratio to parent
chain 1 GQLVESGGGSVQAGGSLRLSCAASGIDSSSYCMGWFRQRPGKEREGVARINALGGVKTAYADSVKDRFTISRDNAENTVYLQMNSLKPEDTAIYYCAAKFSPGYCGGSWSNFGYWGQGTQVTVSSH [chain 1 G52A]	-0.01
chain 1 GQLVESGGGSVQAGGSLRLSCAASGIDSSSYCMGWFRQRPGKEREGVARANGLGGVKTAYADSVKDRFTISRDNAENTVYLQMNSLKPEDTAIYYCAAKFSPGYCGGSWSNFGYWGQGTQVTVSSH [chain 1 I50A]	0.41
chain 1 GQLVESGGGSVQAGGSLRLSCAASGIDSSSYCMGWFRQRPGKEREGVARIAGLGGVKTAYADSVKDRFTISRDNAENTVYLQMNSLKPEDTAIYYCAAKFSPGYCGGSWSNFGYWGQGTQVTVSSH [chain 1 N51A]	0.015
chain 1 GQLVESGGGSVQAGGSLRLSCAASGIDSSSYCMGWFRQRPGKEREGVARINGLGGVKTAYADSVKDRFTISRDNAENTVYLQMNSLKPEDTAIYYCAAKFSPGYCGGSASNFGYWGQGTQVTVSSH [chain 1 W109A]	0.075
chain 1 GQLVESGGGSVQAGGSLRLSCAASGIDSSSYCMGWFRQRPGKEREGVARINGLGGVKTAYADSVKDRFTISRDNAENTVYLQMNSLKPEDTAIYYCAAKFSPGACGGSWSNFGYWGQGTQVTVSSH [chain 1 Y104A]	0.07
chain 1 GQLVESGGGSVQAGGSLRLSCAASGIDSSSYCMGWFRQRPGKEREGVARINGLGAVKTAYADSVKDRFTISRDNAENTVYLQMNSLKPEDTAIYYCAAKFSPGYCGGSWSNFGYWGQGTQVTVSSH [chain 1 G55A]	0.015
chain 1 GQLVESGGGSVQAGGSLRLSCAASGIDSSSYCMGWFRQRPGKEREGVARINGLGGVATAYADSVKDRFTISRDNAENTVYLQMNSLKPEDTAIYYCAAKFSPGYCGGSWSNFGYWGQGTQVTVSSH [chain 1 K57A]	0.1
